What was measured:
[1] = biological target: L. plantarum DltC1, full-length wild type, C-terminal His6 tag (Lactiplantibacillus plantarum) (UniProt Q88VM8); assay: crystal structure; AcpS/DltC1 complex at 4.8 mg/ml, sitting-drop vapor diffusion at 293 K, 20% PEG3350 and 0.2 M sodium malonate; 1.88 Å
[2] = biological target: the molecule itself; assay: as above
[3] = biological target: T1, DltA-∆P-loop mutant, C-terminal His6 tag (Lactiplantibacillus plantarum, UniProt Q88VM6 1-508, missing the loop region comprised between T152 and K160); assay: MST
T1 sequence: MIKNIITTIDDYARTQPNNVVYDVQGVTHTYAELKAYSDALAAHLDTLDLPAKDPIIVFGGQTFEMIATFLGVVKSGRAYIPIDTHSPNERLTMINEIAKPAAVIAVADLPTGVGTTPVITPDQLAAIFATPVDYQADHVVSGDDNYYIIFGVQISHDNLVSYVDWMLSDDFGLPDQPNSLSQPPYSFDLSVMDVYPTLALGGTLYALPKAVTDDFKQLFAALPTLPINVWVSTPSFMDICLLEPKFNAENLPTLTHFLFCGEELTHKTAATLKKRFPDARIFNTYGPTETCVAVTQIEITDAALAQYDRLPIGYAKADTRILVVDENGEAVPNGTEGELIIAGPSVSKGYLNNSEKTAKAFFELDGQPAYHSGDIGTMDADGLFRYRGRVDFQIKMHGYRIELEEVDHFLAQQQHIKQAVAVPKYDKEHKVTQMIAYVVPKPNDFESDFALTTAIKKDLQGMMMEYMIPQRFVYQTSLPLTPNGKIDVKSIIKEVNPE

[4] = biological target: T2, L. plantarum DltA, full-length wild type, C-terminal His6 tag (Lactiplantibacillus plantarum, UniProt Q88VM6 1-508); assay: MST; one protein labelled with NHS red fluorescent dye (RED-NHS Monolith NT kit); Hepes 25 mM pH 7.5, NaCl 300 mM, Tween20 0.05%; 22 °C; triplicate; conditions: both partners purified
T2 construct: DltA (D-alanine-D-alanyl carrier protein ligase) of Lactiplantibacillus plantarum, full-length wild type, 508 residues, cloned in pT7-7; the C-terminal domain is not visible; also called LpDltA; D-alanine-D-alanyl carrier protein ligase; source: E. coli BL21 (DE3), purified (Ni-NTA, SEC)
T2 sequence (looked up): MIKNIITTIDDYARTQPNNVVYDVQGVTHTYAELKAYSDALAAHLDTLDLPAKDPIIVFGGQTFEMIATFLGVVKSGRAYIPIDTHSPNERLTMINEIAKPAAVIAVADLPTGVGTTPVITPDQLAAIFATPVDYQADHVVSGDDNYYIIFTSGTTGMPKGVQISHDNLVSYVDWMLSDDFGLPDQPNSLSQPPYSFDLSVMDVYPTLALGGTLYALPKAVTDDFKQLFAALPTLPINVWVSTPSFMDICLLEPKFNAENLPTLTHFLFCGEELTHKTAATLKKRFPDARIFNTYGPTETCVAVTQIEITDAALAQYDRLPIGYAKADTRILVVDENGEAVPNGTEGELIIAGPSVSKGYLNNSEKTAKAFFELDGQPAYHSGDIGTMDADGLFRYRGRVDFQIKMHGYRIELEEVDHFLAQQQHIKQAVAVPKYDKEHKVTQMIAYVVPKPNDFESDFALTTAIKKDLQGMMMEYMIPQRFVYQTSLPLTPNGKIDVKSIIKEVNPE

[5] = biological target: T3, DltA-∆P-loop mutant, C-terminal His6 tag (Lactiplantibacillus plantarum, UniProt Q88VM6 1-508, missing the loop region comprised between T152 and K160); assay: as above; conditions: both partners purified
T3 construct: DltA of Lactiplantibacillus plantarum, full length but missing the P-loop region comprised between Thr152 and Lys160, cloned in pT7-7; source: E. coli BL21 (DE3), purified (Ni-NTA, SEC)
T3 sequence (looked up): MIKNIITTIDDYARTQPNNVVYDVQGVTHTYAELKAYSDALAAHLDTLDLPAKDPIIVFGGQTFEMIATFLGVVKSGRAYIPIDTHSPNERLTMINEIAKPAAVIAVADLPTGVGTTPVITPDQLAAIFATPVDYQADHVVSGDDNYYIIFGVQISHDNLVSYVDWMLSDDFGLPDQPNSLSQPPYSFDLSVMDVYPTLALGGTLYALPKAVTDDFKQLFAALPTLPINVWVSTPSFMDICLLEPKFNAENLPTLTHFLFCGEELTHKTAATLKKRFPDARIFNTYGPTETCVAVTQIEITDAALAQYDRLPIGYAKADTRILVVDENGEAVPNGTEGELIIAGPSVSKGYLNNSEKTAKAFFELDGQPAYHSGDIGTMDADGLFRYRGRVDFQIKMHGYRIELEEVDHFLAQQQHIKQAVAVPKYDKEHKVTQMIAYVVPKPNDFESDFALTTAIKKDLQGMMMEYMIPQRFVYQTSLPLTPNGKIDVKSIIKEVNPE

[6] = biological target: T4, L. plantarum AcpS, full-length wild type, C-terminal His6 tag (Lactiplantibacillus plantarum, UniProt Q88Z44 1-120); assay: SEC; purified AcpS mixed with apo- or holo-DltC1, mixture subjected to size exclusion chromatography; conditions: both partners purified
T4 construct: AcpS (acyl-carrier protein synthase) of Lactiplantibacillus plantarum, full-length wild type, cloned in pT7-7 (NdeI/PstI); AcpS is a trimer in the crystal structure of the complex (PDB 7R49); also called LpAcpS; acyl-carrier protein synthase; source: E. coli BL21 (DE3), purified (Ni-NTA, Superdex 200 SEC)
T4 sequence (looked up): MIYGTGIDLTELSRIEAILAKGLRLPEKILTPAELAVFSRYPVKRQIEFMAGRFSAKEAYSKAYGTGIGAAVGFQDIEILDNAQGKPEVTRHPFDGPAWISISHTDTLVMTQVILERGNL

B1: L. plantarum AcpS, full-length wild type, untagged (enzyme, Lactiplantibacillus plantarum, UniProt Q88Z44 1-120, looked up)
chain: MIYGTGIDLTELSRIEAILAKGLRLPEKILTPAELAVFSRYPVKRQIEFMAGRFSAKEAYSKAYGTGIGAAVGFQDIEILDNAQGKPEVTRHPFDGPAWISISHTDTLVMTQVILERGNL
notes: AcpS of Lactiplantibacillus plantarum, full-length wild type, pT7-7 with a stop codon before the TEV cleavage site and the His6 tag; also called untagged LpAcpS^WT; untagged AcpS; source: E. coli BL21 (DE3); lysate mixed with Ni-NTA-purified DltC1, complex purified (Ni-NTA, Superdex 200 SEC)
stoichiometry N (AcpS:DltC1 (3:3)) [1]: 1
stoichiometry N [2]: 3

B2: holo-DltC1 (DltC1 fully modified by phosphopantetheine), C-terminal His6 tag (natural protein, Lactiplantibacillus plantarum, UniProt Q88VM8 1-80, looked up)
chain: MTMDDTKATVLSILADLTGEDVSSNMDVNLFDEGILDSMGSVQLLLELQNQLGIEVPVSEFQRSEWDTPAKIVAKVENLQ
modifications: phosphopantetheine (Ppant) covalently attached to Ser38, confirmed by mass spectrometry
notes: DltC1 (nc8_1734) of Lactiplantibacillus plantarum, wild type, co-expressed with wild type AcpS from pRSF-Duet1; also called Ppant-DltC1; Ppant-modified DltC; source: E. coli BL21 (DE3), co-expressed with LpAcpS from pRSF-Duet1, purified (Ni-NTA, SEC); 15N-labelled in M9 minimal media for NMR
Kd [3]: 0.18 µM
Kd [4]: 5.74 µM
binding result [5]: binds

B3: apo-DltC1-S38A, C-terminal His6 tag (natural protein, Lactiplantibacillus plantarum, UniProt Q88VM8 1-80, looked up)
chain: MTMDDTKATVLSILADLTGEDVSSNMDVNLFDEGILDAMGSVQLLLELQNQLGIEVPVSEFQRSEWDTPAKIVAKVENLQ
notes: DltC1 (nc8_1734) of Lactiplantibacillus plantarum, full length, catalytic Ser38 mutated to Ala, cloned in pET-28a(+); source: E. coli BL21 (DE3)-RIPL, purified (Ni-NTA, SEC); 15N- or 13C,15N-labelled in M9 minimal media for NMR
binding result [6]: binds
Kd [4]: 8.89 µM
binding result [5]: binds
